Drawing on article PMC13253070, this text covers apparent KD with ~2.5 M excess of FusANTR-GFP, Kd and stoichiometry N for ten substances.

For test [1], the target named is C-terminal domain of FusB (FusB-CTD), wild type (Pectobacterium carotovorum LMG2410). Briefly: ITC; competition, sequential titration: SpFer injected into the cell holding FusB-CTD (wild type or D322N) pretitrated with ~2.5 M excess of FusANTR-GFP (wild type or D53A); 25 °C, SEC Buffer; apparent. (In general: ITC needs no label: the signal is the heat of the interaction.)

In test [2] the target is FusB-CTD R241K (Pectobacterium carotovorum LMG2410). Kind of test: ITC; 25 °C, SEC Buffer (20 mM Hepes, 140 mM NaCl, pH 8.0); typically 1.1 mM analyte injected 19 x 2 μl into 85 μM ligand in the cell; FusB-CTD constructs normally in the cell, SpFer and FusANTR-GFP constructs as injectants.
Test [3] deals with FusB-CTD D322N (Pectobacterium carotovorum LMG2410). Described as above.
Test [4] deals with C-terminal domain of FusB, wild type (Pectobacterium carotovorum LMG2410). Briefly: ITC; 25 °C, SEC Buffer (20 mM Hepes, 140 mM NaCl, pH 8.0), MicroCal iTC200; typically 1.1 mM injectant, 19 x 2 µl, into 85 µM protein in the cell; FusB-CTD constructs normally in the cell; mean of the titrations listed in Table S2.
Test [5] has as its target C-terminal domain of FusB, D322N variant (Pectobacterium carotovorum LMG2410). Kind of test: ITC; competition, apparent: SpFer injected into the cell holding FusB-CTD (wild type or D322N) pretitrated with ~2.5 M excess of FusANTR-GFP (wild type or D53A); 25 °C, SEC Buffer.
Test [6] addresses C-terminal domain of FusB (FusB-CTD), wild type (Pectobacterium carotovorum LMG2410). Kind of test: ITC; 25 °C, SEC Buffer (20 mM Hepes, 140 mM NaCl, pH 8.0); typically 1.1 mM analyte injected 19 x 2 μl into 85 μM ligand in the cell; FusB-CTD constructs normally in the cell, SpFer and FusANTR-GFP constructs as injectants.
For test [7] the target is unchanged. Briefly: SEC; FusB-CTD alone at varying load (0.2, 0.5, 0.8, 1.2, 2 mg); wild type and variants compared at 0.5 mg loaded; monomer and dimer species. On the technique in general: Size exclusion chromatography separates by hydrodynamic size, large species first.
In test [8] the target is C-terminal domain of FusB, D322N variant (Pectobacterium carotovorum LMG2410). Kind of test: ITC; 25 °C, SEC Buffer (20 mM Hepes, 140 mM NaCl, pH 8.0), MicroCal iTC200; typically 1.1 mM injectant, 19 x 2 µl, into 85 µM protein in the cell; FusB-CTD constructs normally in the cell; mean of the titrations listed in Table S2.
Test [9] addresses FusB-CTD R241A (Pectobacterium carotovorum LMG2410). Kind of test: ITC; 25 °C, SEC Buffer (20 mM Hepes, 140 mM NaCl, pH 8.0); typically 1.1 mM analyte injected 19 x 2 μl into 85 μM ligand in the cell; FusB-CTD constructs normally in the cell, SpFer and FusANTR-GFP constructs as injectants.
The target of test [10] is C-terminal domain of FusB, R242K variant (Pectobacterium carotovorum LMG2410). Briefly: ITC; 25 °C, SEC Buffer (20 mM Hepes, 140 mM NaCl, pH 8.0), MicroCal iTC200; typically 1.1 mM injectant, 19 x 2 µl, into 85 µM protein in the cell; FusB-CTD constructs normally in the cell; mean of the titrations listed in Table S2.

A word on the stoichiometry N: it is a count of units in the complex or per binding partner.

As for “Spinacia oleracea (spinach) ferredoxin 1 (SpFer), wild type, recombinant (from UniProt P00221 51-147) (natural protein)”, the apparent KD with ~2.5 M excess of FusANTR-GFP in test [1] came to 22.3 µM. For the same substance, the Kd in test [2] was found to be 25.5 µM; in [3], 7.4 µM.

“Spinacia oleracea (spinach) ferredoxin 1, recombinant, tag-free (from UniProt P00221 51-147) (natural protein)”: the Kd in test [4] was found to be 7.8 µM; in test [5], 17.7 µM.

“Spinacia oleracea (spinach) ferredoxin 1 with a C-terminal 6His-tag (from UniProt P00221 51-147) (natural protein)” had a Kd in [4] of 18.1 µM.

In test [6], “SpFer E93A/E94A (from UniProt P00221 51-147) (natural protein)” returned a Kd of 31.3 µM.

Substance “C-terminal domain of FusB (FusB-CTD), wild type (domain or fragment)” gave a stoichiometry N in test [7] of 2.

In [6], SpFer F64Y (natural protein) had a Kd of 30.7 µM.

In the case of “FusANTR-GFP D53A (from UniProt C6DG80 21-66) (domain or fragment)”, the Kd in test [6] is 31.6 µM; in test [3] it was 31.8 µM.

In the case of “GFP fusion construct containing the N-terminal region (residues 21-66) of FusA, D53A variant (domain or fragment)”, the Kd in [8] came to 31.8 µM.

With “GFP fusion construct containing the N-terminal region (residues 21-66) of FusA (FusANTR-GFP), wild type (from UniProt C6DG80 21-66) (domain or fragment)”, the Kd in test [9] turned out to be 38.8 µM; in test [2] it was 25.3 µM; in [3], 9.4 µM.

As for “GFP fusion construct containing the N-terminal region (residues 21-66) of FusA (domain or fragment)”, the Kd is 31.2 µM in test [4] and 33 µM in test [10]. For the same substance, the stoichiometry N in test [4] and in [10] was less than 0.2 each time.
